Paper PMC2386557, “Varicellovirus UL49.5 Proteins Differentially Affect the Function of the Transporter Associated with Antigen Processing, TAP” (PLoS Pathogens, 2008)
Where no end group is shown, it is not given here. The star is where a group is joined. 125I = [125I]*

How the values were obtained:
Settings in all cases: one partner purified
[1] = target: T1, TAP complex of MJS TAP1-GFP cells (TAP1-GFP with TAP2) ( | human (endogenous in MJS), UniProt Q03518;Q03519); assay: radioligand binding
T1 construct: also called GFP-tagged TAP
T1 sequence 1: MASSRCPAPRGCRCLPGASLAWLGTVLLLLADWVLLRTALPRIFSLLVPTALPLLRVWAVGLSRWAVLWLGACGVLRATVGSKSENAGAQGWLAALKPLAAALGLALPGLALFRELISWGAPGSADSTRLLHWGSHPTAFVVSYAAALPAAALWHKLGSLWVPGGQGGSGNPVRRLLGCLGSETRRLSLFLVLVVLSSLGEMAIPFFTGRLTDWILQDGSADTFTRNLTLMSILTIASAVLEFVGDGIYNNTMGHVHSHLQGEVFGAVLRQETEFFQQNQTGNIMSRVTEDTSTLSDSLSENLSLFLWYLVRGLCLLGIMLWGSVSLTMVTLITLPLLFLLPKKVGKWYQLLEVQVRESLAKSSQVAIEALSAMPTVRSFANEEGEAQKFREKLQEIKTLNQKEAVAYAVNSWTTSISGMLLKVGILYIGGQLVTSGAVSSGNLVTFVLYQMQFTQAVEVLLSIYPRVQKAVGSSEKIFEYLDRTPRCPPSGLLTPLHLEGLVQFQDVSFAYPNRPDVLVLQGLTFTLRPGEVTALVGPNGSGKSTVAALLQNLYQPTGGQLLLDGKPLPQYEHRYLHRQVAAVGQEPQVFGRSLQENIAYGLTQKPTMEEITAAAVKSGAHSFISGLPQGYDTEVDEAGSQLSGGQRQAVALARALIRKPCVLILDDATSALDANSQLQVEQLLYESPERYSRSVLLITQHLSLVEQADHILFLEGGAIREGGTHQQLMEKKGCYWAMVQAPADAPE
T1 sequence 2: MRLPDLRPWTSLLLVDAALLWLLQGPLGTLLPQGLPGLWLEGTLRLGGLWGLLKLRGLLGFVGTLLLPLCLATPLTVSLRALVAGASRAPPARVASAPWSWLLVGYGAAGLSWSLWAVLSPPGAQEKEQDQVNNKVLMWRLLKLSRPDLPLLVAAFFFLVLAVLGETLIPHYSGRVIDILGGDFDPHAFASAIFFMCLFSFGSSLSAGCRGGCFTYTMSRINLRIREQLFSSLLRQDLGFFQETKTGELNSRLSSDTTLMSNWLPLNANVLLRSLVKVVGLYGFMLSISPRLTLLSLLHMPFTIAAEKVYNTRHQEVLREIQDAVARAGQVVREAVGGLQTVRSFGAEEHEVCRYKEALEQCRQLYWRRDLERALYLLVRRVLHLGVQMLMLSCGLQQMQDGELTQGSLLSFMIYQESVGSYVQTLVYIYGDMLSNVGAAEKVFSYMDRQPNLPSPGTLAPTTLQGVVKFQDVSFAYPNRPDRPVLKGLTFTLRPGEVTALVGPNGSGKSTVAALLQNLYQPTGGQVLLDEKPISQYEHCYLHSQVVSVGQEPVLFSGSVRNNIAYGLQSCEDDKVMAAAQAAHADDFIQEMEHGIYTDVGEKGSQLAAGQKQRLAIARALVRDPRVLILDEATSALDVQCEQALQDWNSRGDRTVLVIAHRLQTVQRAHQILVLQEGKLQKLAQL

[2] = target: T1, TAP complex of MJS TAP1-GFP cells …; assay: radioligand binding; as a2, but microsomes of MJS TAP1-GFP cells that express EHV-1 UL49.5
[3] = target: T1, TAP complex of MJS TAP1-GFP cells …; assay: radioligand binding; microsomes of control MJS TAP1-GFP cells incubated on ice with increasing concentrations of RR[125I]YQKSTEL in AP buffer (5 mM MgCl2 in PBS, pH 7.0); corrected for the signal with 200-fold excess of ICP47; triplicate

B1: radiolabeled reporter peptide RR[125I]YQKSTEL (peptide)
peptide: RRY(125I)QKSTEL
notes: also called ^125I-labeled reporter peptide; radiolabeled peptide
Q: With B1 as the binder, how does the Kd [1] read?
A: 351 ± 42 nM

Q: What about the Kd [2] of the same binder?
A: 236 ± 71 nM

Q: And the Kd [3]?
A: 277 ± 58 nM
